We go through seven molecules from patent US20220153875A1, “ANTIGEN-BINDING MOLECULE CONTAINING ANTIGEN-BINDING DOMAIN OF WHICH BINDING ACTIVITY TO ANTIGEN IS CHANGED DEPENDING ON MTA, AND LIBRARY FOR OBTAINING SAID ANTIGEN-BINDING DOMAIN” (Chugai Seiyaku Kabushiki Kaisha, priority 2019, published 2022).

Experiment [1] can be described thus: Biacore T200: rabbit B cell cloning antibodies, binding to adenosine. As to conditions: Biacore T200, 25° C.; read-out: Affinity KD, Adenosine. The method, then: (§1) The antibody of interest was captured on Sensor Chip Protein A (GE healthcare) with protein A pre-immobilized, or on an immobilized surface prepared by binding onto Streptavidin-immobilized Sensor chip SA (GE Healthcare) the Capture Select Biotin Anti-IgG-Fc (Hu) (Thermo fisher scientific), which is a biotinylated anti-human IgG CH1 molecule, and interacted with MTA (Sigma-Aldrich) or MTA analogs. As MTA analogs, adenosine (Wako) (measured concentration in tumor tissue: 182 nM) and S-(5′-adenosyl)-L-homocysteine, (SAH) (Sigma-Aldrich) (measured concentration in tumor tissue: 30 nM) were selected based on the structural similarity to MTA and the concentration in tumor tissue of tumor-bearing mice of an MTAP-deficient cell line. 20 mM ACES-NaOH, 150 mM NaCl, 0.05% Tween20, 0.05% DMSO was used as the running buffer. MTA or adenosine or SAH was allowed to interact at a flow rate of 30 μL/min for 120 seconds and then dissociated in the running buffer. The interaction was measured at 25° C. and the same buffer as the running buffer was used to dilute MTA and its analogs.
(§2) The dissociation constant […]) (M) was calculated based on the binding rate constant ka (1/Ms) and the dissociation rate constant kd (1/s), which are kinetic parameters calculated from the sensorgrams obtained by the measurement. Alternatively, the dissociation constant KD (M) was calculated using steady state analysis. […]

A short description of experiment [2]: Biacore T200: rabbit B cell cloning antibodies, binding to SAH. The settings on record: Biacore T200, 25° C.; read-out: Affinity KD, SAH. The protocol:
as §1, §2
For orientation: Surface plasmon resonance follows binding to a sensor surface in real time, without labels.

The nature of experiment [3]: Biacore T200: rabbit B cell cloning antibodies, binding to MTA. The settings on record: Biacore T200, 25° C.; read-out: Affinity KD, MTA. The protocol:
as §1, §2

Experiment [4] addresses T1, hIL-6R (Homo sapiens, UniProt P08887).
T1 sequence (P08887 20-357): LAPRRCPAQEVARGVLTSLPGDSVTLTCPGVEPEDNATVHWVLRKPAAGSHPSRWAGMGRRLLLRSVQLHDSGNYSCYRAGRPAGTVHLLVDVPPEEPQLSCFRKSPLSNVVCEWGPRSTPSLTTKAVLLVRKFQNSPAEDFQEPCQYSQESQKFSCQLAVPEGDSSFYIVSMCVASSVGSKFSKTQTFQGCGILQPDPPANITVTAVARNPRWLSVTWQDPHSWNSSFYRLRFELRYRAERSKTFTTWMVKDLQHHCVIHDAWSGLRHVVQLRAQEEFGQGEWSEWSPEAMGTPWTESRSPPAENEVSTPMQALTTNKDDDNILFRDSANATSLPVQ
The experiment in a line: Biacore T200: hIL-6R binding amount at different MTA concentrations. The settings on record: MTA 0.1, 1, 10, 100 μM, 25° C. The method, then: For the MTA-dependently binding anti-hIL-6R antibody cloned in Example (4-5) (6RS2T007H-F760mnN17/6RS2T007L-KT0), the change in the amount of antigen binding dependent on MTA concentration was assessed using Biacore T200 (GE Healthcare). The measurement was done at 25° C., using 20 mM ACES added with MTA at final concentrations of 0.1, 1, 10, and 100 μM, 150 mM NaCl, 0.05% (w/v) Tween20, pH 7.4 as the running buffer Series S Sensor Chip CM4 was used as the sensor chip, ProA/G was immobilized by amine coupling with the antibody mobilised on the top of that, after which hIL-6R was allowed to interact as an analyte to measure the change in binding amount between antigen-antibody. The running buffer was used to dilute the antigen.

Experiment [5] can be described thus: Biacore T200: binding of humanized SMB0002 to adenosine. As to conditions: 37° C.; read-out: Affinity KD, Adenosine. The method, then:
(§3) CaptureSelect™ Biotin Anti-IgG-CH1 Conjugate (Thermo fisher scientific), which is a biotinylated anti-human IgG CH1 molecule, was bound to Sensor Chip SA (GE Healthcare) onto which streptavidin was immobilized in advance, then humanized SMB0002 was allowed to be captured, and MTA (Sigma-Aldrich) or adenosine (Wako) was allowed to interact with humanized SMB0002. 50 mM Tris-HCl, 150 mM NaCl (Takara, T903), 0.02% (w/v) Tween20, 5% DMSO was used as the running buffer. MTA or adenosine was allowed to interact with humanized SMB0002 for 42 seconds at a flow rate of 100 μL/min and then dissociated from the antibody in the running buffer. The interaction was measured at 37° C., and the same buffer as the running buffer was used to dilute MTA or adenosine.
(§4) The dissociation constant KD (M) was calculated based on the binding rate constant ka (1/Ms) and the dissociation rate constant kd (1/s), which are kinetic parameters calculated from the sensorgrams obtained by the measurement. Alternatively, the dissociation constant KD (M) was calculated using steady state analysis. Biacore T200 Evaluation Software (GE Healthcare) was used to calculate each parameter.

Experiment [6] is described as follows: Biacore T200: binding of humanized SMB0002 to MTA. As to conditions: 37° C.; read-out: Affinity KD, MTA. The protocol:
as §3, §4

The nature of experiment [7]: Surface plasmon resonance: humanized MTA0303 and humanized MTA0330, binding to adenosine. The settings on record: humanized antibodies; 25° C.; read-out: Affinity KD, Adenosine.
Source text: (§5) […] (GE Healthcare) was used to analyze binding to MTA and MTA analogs (adenosine, SAH) to verify whether humanized MTA0303 and humanized MTA0330 specifically bind to MTA.
as §1, with “(Sigma-Aldrich),” for “(Sigma-Aldrich)”, “or” for “or MTA analogs. As MTA analogs,”, “(Wako), or” for “(Wako) (measured concentration in tumor tissue: 182 nM) and”, “(Sigma-Aldrich).” for “(Sigma-Aldrich) (measured concentration in tumor tissue: 30 nM) were selected based on the structural similarity to MTA and the concentration in tumor tissue of tumor-bearing mice of an MTAP-deficient cell line.”, “MTA, or adenosine, or SAH.” for “MTA and its analogs.”
(§6) The dissociation constant KD (M) was calculated based on the binding rate constant ka (1/Ms) and the dissociation rate constant kd (1/s), which are kinetic parameters calculated from the sensorgrams obtained by the measurement. Alternatively, the dissociation constant KD (M) was calculated using steady state analysis. […] (GE Healthcare) was used to calculate each parameter.

Experiment [8] in a line: Surface plasmon resonance: humanized MTA0303 and humanized MTA0330, binding to MTA. As to conditions: humanized antibodies; 25° C.; read-out: Affinity KD, MTA.
Source text: as §5
as §1, with “(Sigma-Aldrich),” for “(Sigma-Aldrich)”, “or” for “or MTA analogs. As MTA analogs,”, “(Wako), or” for “(Wako) (measured concentration in tumor tissue: 182 nM) and”, “(Sigma-Aldrich).” for “(Sigma-Aldrich) (measured concentration in tumor tissue: 30 nM) were selected based on the structural similarity to MTA and the concentration in tumor tissue of tumor-bearing mice of an MTAP-deficient cell line.”, “MTA, or adenosine, or SAH.” for “MTA and its analogs.”
as §6

Experiment [9] in a line: Surface plasmon resonance: humanized MTA0303 and humanized MTA0330, binding to SAH. As to conditions: humanized antibodies; 25° C.; read-out: Affinity KD, SAH.
Source text: as §5
as §1, with “(Sigma-Aldrich),” for “(Sigma-Aldrich)”, “or” for “or MTA analogs. As MTA analogs,”, “(Wako), or” for “(Wako) (measured concentration in tumor tissue: 182 nM) and”, “(Sigma-Aldrich).” for “(Sigma-Aldrich) (measured concentration in tumor tissue: 30 nM) were selected based on the structural similarity to MTA and the concentration in tumor tissue of tumor-bearing mice of an MTAP-deficient cell line.”, “MTA, or adenosine, or SAH.” for “MTA and its analogs.”
as §6

The target in experiment [10] is T1, hIL-6R. Description: Surface plasmon resonance (Biacore T200): C03H-BH076N17/C03L-KT0 binding to hIL-6R under MTA or adenosine. The method, then:
Using Biacore T200 (GE Healthcare), the effects of MTA and adenosine on the antigen-antibody reaction between C03H-BH076N17/C03L-KT0 and hIL-6R were evaluated. TBS, 0.02% (w/v) Tween20, pH 7.4 was used as the running buffer. ProA/G (Pierce) was immobilized onto Sensor Chip CM5 (GE Healthcare) by amine coupling, and after the antibody was immobilized on it, various antigens were allowed to interact as analytes, to observe changes in the antigen-antibody binding amount. The running buffer and a buffer in which either MTA or adenosine was added to the running buffer were used for antigen dilution, which were prepared in a series of stepwise concentrations. Biacore T200 Evaluation Software (GE Healthcare) was used to calculate the parameters.

B1: MTA0303: anti-MTA antibody from rabbit B cell cloning; H-chain variable region SEQ ID NO: 46, L-chain SEQ ID NO: 47 (antibody, V domains shown)
VH: QSLEESGGDLVKPGASLTLTCTASGFSFSSAYWMCWVRQAPGKGLEWTACIFASAIYAGSGGSTYYASWAKGRFTISKTSSTTVTLQMTSLTAADTATYFCATGYGSSGGGFDELWGPGTLVTVSS
VL: AQVLTQTASSVSAAVGGTVTISCQSSESVYANRLSWYQQKPGQPPKLLIYSASTLPSGVPSRFKGSGSGTQFTLTISDLECDDVGTYYCAGLYSGNIPAFGGGTEVVVK
For B1, the Kd in experiment [1] was 11.4 µM; in experiment [2], 119 µM; in experiment [3], 0.00246 µM.

B2: 6RS2T007H-F760mnN17/6RS2T007L-KT0: MTA-dependent anti-hIL-6R antibody; H-chain variable region SEQ ID NO: 57, L-chain variable region SEQ ID NO: 58 (antibody, V domains shown)
VH: QVQLVQSGAEVKKPGASVKVSCKVSNIVLMQHTYGWVRQPPGKGLEWIGIIGGDGHAWYPRWVKGRFTISKDNSKNQVVLTMTNMDPVDTATYYCARGGKDGFTNAWDPWGQGTLVTVSS
VL: DIQLTQSPSSLSASVGDRVTITCQSSQSVFNNNGLSWYQQKPGQPPKLLIYDASTLASGVPSRFSGSGSGTDFTLTINSLEAEDAATYYCHGSQATQIWWDNAFGGGTEVVVK
With B2, the “amount of antigen (hIL-6R) binding” value in the experiment with hIL-6R [4] is on record as “changes stepwise according to the MTA concentration”.

B3: Humanized SMB0002: adenosine-binding antibody, library template; heavy chain variable region SEQ ID NO: 31, light chain variable region SEQ ID NO: 32 (antibody, V domains shown)
VH: QVQLVQSGAEVKKPGASVKVSCKVSGIDLTNYAMGWVRQPPGKGLEWIGIIGADSSTWYPSWVKGRFTISKDTSKNQVVLTMTNMDPVDTATYYCARGRFVGYTNAFDPWGQGTLVTVSS
VL: DIQLTQSPSSLSASVGDRVTITCQSSQSVWNNNYLSWYQQKPGQPPKLLIYDASTLASGVPSRFSGSGSGTDFTLTINSLEAEDAATYYCHGSYANSGWYDNAFGGGTEVVVK
On to B3, for which the Kd in experiment [5] amounted to 0.064 µM; in [6] it was 3.8 µM.

B4: HumanizedMTA0303 (antibody, V domains shown)
VH: QVQLVESGGGLVKPGGSLRLSCAASGFTFSSAYWMCWVRQAPGKGLEWVACIFASAIYAGSGGSTYYASWAKGRLTISKDTSKNQVVLTMTNMDPVDTATYYCATGYGSSGGGFDELWGQGTLVTVSS
VL: EIVLTQSPATLSLSPGERATLSCQSSESVYANRLSWYQQKPGQPPKLLIYSASTLPSGIPARFSGSGSGTDFTLTISRLEPEDFAVYYCAGLYSGNIPAFGQGTKVEIK
For the molecule B4, the Kd in experiment [7] was determined as 41.4 µM; in experiment [8] it was 0.0108 µM; in experiment [9] it was 211 µM.

B5: HumanizedMTA0330 (antibody, V domains shown)
VH: QVQLVESGGGLVQPGGSLRLSCSASGFTFSSSYWMCWVRQAPGKGLEWVGCIYSGDGSTYYASWVNGRLTISKDTSKSQVVLTMTNMDPVDTATYYCARENIFGSGALNLWGQGTLVTVSS
VL: DIQVTQSPSSLSASVGDRVTITCHSSKSVYSNNRLAWYQQKPGQPPKLLIYQASTLASGVPSRFSGSGSGTEFTLTISSLQPDDFATYYCQGTYYSSGFYFAFGQGTKVEIK
With B5, the values for the Kd in [7], in experiment [8] and in experiment [9] were 44.8 µM, 0.00888 µM and 84.7 µM, respectively.

B6: MTA0330: anti-MTA antibody from rabbit B cell cloning; H-chain variable region SEQ ID NO: 48, L-chain SEQ ID NO: 49 (antibody, V domains shown)
VH: QEQLVESGGDLVTPGASLTLTCKASGFSFSSSYWMCWVRQAPGKGLEWIACIYSGDGSTYYASWVNGRFTISKTSSTTVTLQMTSLTAADTATYFCARENIFGSGALNLWGPGTLVTVSS
VL: QAVVTQTPSPVSAAVGGTVTISCHSSKSVYSNNRLAWYQQKPGQPPKLLIYQASTLASGVASRFSGSGSGTQFTLTISGVQCDDAATYYCQGTYYSSGFYFAFGGGTEVVVK
Consider B6, for which the Kd in experiment [1] turned out to be 63.5 µM; in experiment [2], 187 µM; in experiment [3], 0.0144 µM.

B7: C03H-BH076N17/C03L-KT0: antibody binding hIL-6R MTA-dependently; heavy chain variable region SEQ ID NO: 54, light chain variable region SEQ ID NO: 55 (antibody, V domains shown)
VH: QVQLVQSGAEVKKPGSSVKVSCKASGGTFSSYAISWVRQAPGQGLEWMGGIIPIFGTANYAQKFQGRVTITADESTSTAYMELSSLRSEDTAVYYCARFHVMSSFEIWGQGTLVTVSS
VL: DIQMTQSPSSLSASVGDRVTITCRASQSISSYLNWYQQKPGKAPKLLIYAASSLQSGVPSRFSGSGSGTDFTLTISSLQPEDFATYYCLQFNNDPLTFGGGTKVEIK
As for B7, the “amount of binding to hIL-6R” value with hIL-6R [10] (different concentrations of MTA) is on record as “showed stronger binding activity to hIL-6R as MTA concentration increased”; with hIL-6R [10] (different concentrations of adenosine), “no binding to hIL-6R was observed at any concentration”.

The term Kd denotes the equilibrium constant for the complex coming apart.
